Measurements taken from the RNAGym collection of RNA variant scans (doi:10.1021/acssynbio.7b00057).

B1: Pistol ribozyme (parent)
chain: GGGUCGUUGUUCCAUAAUCGCGUGGAUAUGGCACGCAAGUUUCUACCGGGCACCGUAAAUGUCCGACUGGAGCCGUUCGGGCGGCUAUAAACAGACCUCAGGCCCGAAGCGUGGCGGCACCUGCCGCCGGUGGUAAAAAAGAUCGGAAGAGCACACGUCU

Variants of: B1
Assay: aptazyme ON/OFF ratio, guanine; higher = stronger switching; co-transcriptional cleavage with and without guanine

**Q.** For U7A G9U U10C U11A C12G, which “aptazyme ON/OFF ratio” value is on record?
**A.** The value was 1.23.

**Q.** With U7A G9U U10C U11A C12U as the variant, how does the “aptazyme ON/OFF ratio” value read?
**A.** Its value is 1.23.

**Q.** Which “aptazyme ON/OFF ratio” value does the source give for U7A U8A G9A U10C U11A C12A C13U here?
**A.** Its value is 1.13.

**Q.** For U7A U8A G9A U10C U11A C12A C13G, which “aptazyme ON/OFF ratio” value is on record?
**A.** The value was 1.06.

**Q.** For U7A U8A G9A U10C U11A C12A C13A, which “aptazyme ON/OFF ratio” value is on record?
**A.** Its value is 1.11.

**Q.** Which “aptazyme ON/OFF ratio” value does the source give for U7A U8A G9A U10A C12U C13G here?
**A.** Its value is 1.19.

**Q.** For U7A U8A G9A U10A C12U C13A, which “aptazyme ON/OFF ratio” value is on record?
**A.** The value was 1.27.

**Q.** Which “aptazyme ON/OFF ratio” value does the source give for U7A U8A G9A U10A C12U C13U here?
**A.** The value was 1.47.

**Q.** For U7A G9U U10G U11G C12G C13U, which “aptazyme ON/OFF ratio” value is on record?
**A.** Its value is 1.45.

**Q.** For U7A G9U U10G U11G C12G C13G, which “aptazyme ON/OFF ratio” value is on record?
**A.** Its value is 1.4.

**Q.** For U7A G9U U10G U11G C12G C13A, which “aptazyme ON/OFF ratio” value is on record?
**A.** Its value is 1.23.

**Q.** Which “aptazyme ON/OFF ratio” value does the source give for U7A G9U U10G here?
**A.** The value was 1.75.

**Q.** Which “aptazyme ON/OFF ratio” value does the source give for U7A U8A G9A U10C U11A C13G here?
**A.** The value was 1.09.

**Q.** With U7A U8A G9A U10C U11A C13A as the variant, how does the “aptazyme ON/OFF ratio” value read?
**A.** Its value is 1.11.

**Q.** With U7A U8A G9A U10C U11A C13U as the variant, how does the “aptazyme ON/OFF ratio” value read?
**A.** Its value is 1.09.

**Q.** With U7A G9U U10C U11A C13A as the variant, how does the “aptazyme ON/OFF ratio” value read?
**A.** The value was 1.14.

**Q.** Which “aptazyme ON/OFF ratio” value does the source give for U7A G9U U10C U11A C13U here?
**A.** Its value is 1.1.

**Q.** Which “aptazyme ON/OFF ratio” value does the source give for U7A G9U U10C U11A C13G here?
**A.** Its value is 1.1.

**Q.** For U7A U8A G9A U10C U11G C12G C13A, which “aptazyme ON/OFF ratio” value is on record?
**A.** Its value is 1.11.

**Q.** For U7A U8A G9A U10C U11G C12G C13G, which “aptazyme ON/OFF ratio” value is on record?
**A.** Its value is 1.15.

**Q.** With U7A U8A G9A U10C U11G C12G C13U as the variant, how does the “aptazyme ON/OFF ratio” value read?
**A.** Its value is 1.08.

**Q.** Which “aptazyme ON/OFF ratio” value does the source give for U7A U8A G9A U10A U11C C12G C13G here?
**A.** Its value is 1.3.

**Q.** For U7A U8A G9A U10A U11C C12G C13U, which “aptazyme ON/OFF ratio” value is on record?
**A.** Its value is 1.1.

**Q.** With U7A U8A G9A U10A U11C C12G C13A as the variant, how does the “aptazyme ON/OFF ratio” value read?
**A.** The value was 1.11.

**Q.** With U7A G9U U11G C12U C13A as the variant, how does the “aptazyme ON/OFF ratio” value read?
**A.** Its value is 1.35.

**Q.** Which “aptazyme ON/OFF ratio” value does the source give for U7A G9U U11G C12U C13U here?
**A.** The value was 1.08.

**Q.** Which “aptazyme ON/OFF ratio” value does the source give for U7A G9U U11G C12U C13G here?
**A.** Its value is 1.3.

**Q.** For U7A G9U U10G U11C C13G, which “aptazyme ON/OFF ratio” value is on record?
**A.** The value was 1.08.

**Q.** For U7A G9U U10G U11C C13A, which “aptazyme ON/OFF ratio” value is on record?
**A.** Its value is 1.1.

**Q.** With U7A G9U U10G U11C C13U as the variant, how does the “aptazyme ON/OFF ratio” value read?
**A.** Its value is 1.05.

**Q.** With U7A U8A G9A C12G C13G as the variant, how does the “aptazyme ON/OFF ratio” value read?
**A.** Its value is 1.12.

**Q.** Which “aptazyme ON/OFF ratio” value does the source give for U7A U8A G9A C12G C13A here?
**A.** Its value is 1.09.

**Q.** Which “aptazyme ON/OFF ratio” value does the source give for U7A U8A G9A C12G C13U here?
**A.** The value was 1.14.

**Q.** For U7A G9U U10C C12A C13G, which “aptazyme ON/OFF ratio” value is on record?
**A.** The value was 1.14.

**Q.** Which “aptazyme ON/OFF ratio” value does the source give for U7A G9U U10C C12A C13A here?
**A.** Its value is 1.21.

**Q.** With U7A G9U U10C C12A C13U as the variant, how does the “aptazyme ON/OFF ratio” value read?
**A.** Its value is 1.16.

**Q.** With U7A G9U U10G C12U C13G as the variant, how does the “aptazyme ON/OFF ratio” value read?
**A.** The value was 1.23.

**Q.** For U7A G9U U10G C12U C13U, which “aptazyme ON/OFF ratio” value is on record?
**A.** The value was 1.87.

**Q.** For U7A G9U U10G C12U C13A, which “aptazyme ON/OFF ratio” value is on record?
**A.** Its value is 1.32.

**Q.** With U7A G9U U10C U11G C12U as the variant, how does the “aptazyme ON/OFF ratio” value read?
**A.** Its value is 1.34.

**Q.** For U7A G9U U10C U11G C12A, which “aptazyme ON/OFF ratio” value is on record?
**A.** The value was 1.02.

**Q.** For U7A G9U U10C U11G C12G, which “aptazyme ON/OFF ratio” value is on record?
**A.** The value was 1.09.

**Q.** For U7A U8A C12G C13A, which “aptazyme ON/OFF ratio” value is on record?
**A.** The value was 1.2.

**Q.** With U7A U8A C12G C13U as the variant, how does the “aptazyme ON/OFF ratio” value read?
**A.** The value was 1.48.

**Q.** For U7A U8A C12G C13G, which “aptazyme ON/OFF ratio” value is on record?
**A.** Its value is 1.35.

**Q.** With U7A G9U U11C C13A as the variant, how does the “aptazyme ON/OFF ratio” value read?
**A.** The value was 1.15.

**Q.** Which “aptazyme ON/OFF ratio” value does the source give for U7A G9U U11C C13G here?
**A.** Its value is 1.08.

**Q.** Which “aptazyme ON/OFF ratio” value does the source give for U7A G9U U11C C13U here?
**A.** The value was 1.12.

**Q.** For U7A U8A C12A C13G, which “aptazyme ON/OFF ratio” value is on record?
**A.** The value was 1.12.

**Q.** Which “aptazyme ON/OFF ratio” value does the source give for U7A U8A C12A C13A here?
**A.** Its value is 1.22.

**Q.** With U7A U8A C12A C13U as the variant, how does the “aptazyme ON/OFF ratio” value read?
**A.** Its value is 1.5.

**Q.** For U7A G9U U10C U11A C12A C13A, which “aptazyme ON/OFF ratio” value is on record?
**A.** Its value is 1.2.

**Q.** For U7A G9U U10C U11A C12A C13U, which “aptazyme ON/OFF ratio” value is on record?
**A.** Its value is 1.21.

**Q.** Which “aptazyme ON/OFF ratio” value does the source give for U7A G9U U10C U11A C12A C13G here?
**A.** Its value is 1.15.

**Q.** Which “aptazyme ON/OFF ratio” value does the source give for U7A G9U U11A C12G here?
**A.** The value was 1.35.

**Q.** For U7A G9U U11A C12A, which “aptazyme ON/OFF ratio” value is on record?
**A.** Its value is 1.28.

**Q.** For U7A G9U U11A C12U, which “aptazyme ON/OFF ratio” value is on record?
**A.** The value was 1.34.

**Q.** With U7A G9U U10C C12G C13G as the variant, how does the “aptazyme ON/OFF ratio” value read?
**A.** Its value is 1.29.

**Q.** Which “aptazyme ON/OFF ratio” value does the source give for U7A G9U U10C C12G C13U here?
**A.** The value was 1.4.

**Q.** For U7A G9U U10C C12G C13A, which “aptazyme ON/OFF ratio” value is on record?
**A.** The value was 1.07.

**Q.** For U7A G9U U10G U11A C12U, which “aptazyme ON/OFF ratio” value is on record?
**A.** The value was 1.06.

**Q.** Which “aptazyme ON/OFF ratio” value does the source give for U7A G9U U10G U11A C12G here?
**A.** The value was 1.33.

**Q.** With U7A G9U U10G U11A C12A as the variant, how does the “aptazyme ON/OFF ratio” value read?
**A.** Its value is 1.2.

**Q.** With U7A G9U U11C C12U C13U as the variant, how does the “aptazyme ON/OFF ratio” value read?
**A.** Its value is 1.26.

**Q.** For U7A G9U U11C C12U C13A, which “aptazyme ON/OFF ratio” value is on record?
**A.** Its value is 1.2.

**Q.** For U7A G9U U11C C12U C13G, which “aptazyme ON/OFF ratio” value is on record?
**A.** The value was 1.1.

**Q.** Which “aptazyme ON/OFF ratio” value does the source give for U7A G9U U10C U11C C13G here?
**A.** Its value is 1.04.

**Q.** For U7A G9U U10C U11C C13U, which “aptazyme ON/OFF ratio” value is on record?
**A.** The value was 1.02.

**Q.** With U7A G9U U10C U11C C13A as the variant, how does the “aptazyme ON/OFF ratio” value read?
**A.** Its value is 1.01.

**Q.** Which “aptazyme ON/OFF ratio” value does the source give for U7A U8A G9A U10A U11A C12A C13G here?
**A.** The value was 1.21.

**Q.** For U7A U8A G9A U10A U11A C12A C13U, which “aptazyme ON/OFF ratio” value is on record?
**A.** Its value is 1.34.

**Q.** For U7A U8A G9A U10A U11A C12A C13A, which “aptazyme ON/OFF ratio” value is on record?
**A.** The value was 1.35.

**Q.** With U7A U8A G9A U10C U11C as the variant, how does the “aptazyme ON/OFF ratio” value read?
**A.** Its value is 1.03.

**Q.** Which “aptazyme ON/OFF ratio” value does the source give for U7A U8A G9A U10C U11G here?
**A.** Its value is 1.14.

**Q.** Which “aptazyme ON/OFF ratio” value does the source give for U7A U8A G9A U10C U11A here?
**A.** Its value is 1.22.

**Q.** Which “aptazyme ON/OFF ratio” value does the source give for U7A G9U U10C C13G here?
**A.** The value was 1.02.

**Q.** Which “aptazyme ON/OFF ratio” value does the source give for U7A G9U U10C C13U here?
**A.** The value was 1.18.

**Q.** With U7A G9U U10C C13A as the variant, how does the “aptazyme ON/OFF ratio” value read?
**A.** The value was 1.09.

**Q.** For U7A U8A G9A U10A C13U, which “aptazyme ON/OFF ratio” value is on record?
**A.** Its value is 1.17.

**Q.** Which “aptazyme ON/OFF ratio” value does the source give for U7A U8A G9A U10A C13A here?
**A.** The value was 1.12.

**Q.** For U7A U8A G9A U10A C13G, which “aptazyme ON/OFF ratio” value is on record?
**A.** The value was 1.05.

**Q.** For U7A U8A G9A U10A U11C C12A C13U, which “aptazyme ON/OFF ratio” value is on record?
**A.** Its value is 1.24.

**Q.** For U7A U8A G9A U10A U11C C12A C13G, which “aptazyme ON/OFF ratio” value is on record?
**A.** The value was 1.14.

**Q.** With U7A U8A G9A U10A U11C C12A C13A as the variant, how does the “aptazyme ON/OFF ratio” value read?
**A.** Its value is 1.2.
